Here are results for one molecule from article PMC3696906.

The target of one series is T1, murine CD28-Fc (mouse, UniProt P31041 20-150).
T1 sequence: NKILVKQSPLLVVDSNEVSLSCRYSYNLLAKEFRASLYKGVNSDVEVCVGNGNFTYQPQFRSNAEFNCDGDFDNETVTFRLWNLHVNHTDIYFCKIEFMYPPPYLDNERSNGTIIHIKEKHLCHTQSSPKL
Kind of series: filter binding.

Another series has as its target human CD28-Fc (human, UniProt P10747 19-152). Kind of series: filter binding?

Chain of human CD28-Fc (P10747 19-152): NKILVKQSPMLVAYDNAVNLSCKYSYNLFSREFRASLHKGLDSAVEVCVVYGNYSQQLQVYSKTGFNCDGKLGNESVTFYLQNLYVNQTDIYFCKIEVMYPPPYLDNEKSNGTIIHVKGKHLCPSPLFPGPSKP

B1: CD28Apt7 (monomer) (structured_RNA)
RNA: GGGAGAGAGGAAGAGGGAUGGGGAUUAGACCAUAGGCUCCCAACCCCCAUAACCCAGAGGUCGAUAGUACUGGAUCCCCCC
modifications: 2'-fluoropyrimidine (2'-F C and U)
As a reminder, the Kd is the equilibrium constant for the complex coming apart. A low value points to tighter binding. For the molecule B1, the affinity in the series with murine CD28-Fc, expressed as Kd, was 60 nM. Also, in the series with human CD28-Fc, the binding result was “no binding”.
